Experimental data: PMC10119634 (Blood Advances, 2022)

Target: T1, GPVIex (nonglycosylated human GPVI extracellular domain residues 1 to 183) (Homo sapiens)
T1 chain: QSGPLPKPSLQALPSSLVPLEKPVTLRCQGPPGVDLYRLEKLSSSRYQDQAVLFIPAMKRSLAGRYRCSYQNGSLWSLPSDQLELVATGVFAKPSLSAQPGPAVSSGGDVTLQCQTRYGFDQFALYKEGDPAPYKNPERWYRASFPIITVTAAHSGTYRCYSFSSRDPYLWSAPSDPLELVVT
Assay: crystal structure

B1: Glenzocimab (Fab, V domains shown)
VH: QVQLVQSGAEVKKPGASVKVSCKASGYTFTSYNMHWVRQAPGQGLEWMGGIYPGNGDTSYNQKFQGRVTMTRDTSTSTVYMELSSLRSEDTAVYYCARGTVVGDWYFDVWGQGTLVTVSS
VL: DIQMTQSPSSLSASVGDRVTITCRSSQSLENSNGNTYLNWYQQKPGKAPKLLIYRVSNRFSGVPSRFSGSGSGTDFTFTISSLQPEDIATYYCLQLTHVPWTFGQGTKVEIT
  binding result: binds
